Results published in ChEMBL document CHEMBL1132365, “A multisubstrate adduct inhibitor of AICAR transformylase” (J Med Chem, 1999).

Assays:
[1] = substrate: NC1=NC(=O)C2N=C(CN(C=O)c3ccc(C(=O)N[C@H](CCC(=O)O)C(=O)O)cc3)C=CC2N1; assay: (§1) Substrate specificity towards AICAR formyltransferase
[2] = substrate: NC1=NC(=O)C2N[C@@H](CN(C=O)c3ccc(C(=O)N[C@H](CCC(=O)O)C(=O)O)cc3)CNC2N1; assay: as §1

B1: Bifunctional purine biosynthesis protein ATIC (Homo sapiens), P31939 (protein)
chain: MAPGQLALFSVSDKTGLVEFARNLTALGLNLVASGGTAKALRDAGLAVRDVSELTGFPEMLGGRVKTLHPAVHAGILARNIPEDNADMARLDFNLIRVVACNLYPFVKTVASPGVTVEEAVEQIDIGGVTLLRAAAKNHARVTVVCEPEDYVVVSTEMQSSESKDTSLETRRQLALKAFTHTAQYDEAISDYFRKQYSKGVSQMPLRYGMNPHQTPAQLYTLQPKLPITVLNGAPGFINLCDALNAWQLVKELKEALGIPAAASFKHVSPAGAAVGIPLSEDEAKVCMVYDLYKTLTPISAAYARARGADRMSSFGDFVALSDVCDVPTAKIISREVSDGIIAPGYEEEALTILSKKKNGNYCVLQMDQSYKPDENEVRTLFGLHLSQKRNNGVVDKSLFSNVVTKNKDLPESALRDLIVATIAVKYTQSNSVCYAKNGQVIGIGAGQQSRIHCTRLAGDKANYWWLRHHPQVLSMKFKTGVKRAEISNAIDQYVTGTIGEDEDLIKWKALFEEVPELLTEAEKKEWVEKLTEVSISSDAFFPFRDNVDRAKRSGVAYIAAPSGSAADKVVIEACDELGIILAHTNLRLFHH
- Km [1]: 102 µM
- Km [2]: 68 µM
